# From the supplement of paper PMC10724198
# ± gives the standard deviation of the averaged measurements.
# Test system: Saccharomyces cerevisiae
# Assay: protein stability index of tFT-peptide fusion (C-terminal peptide) (PSI (0-1 scale)); higher = more stable (slower turnover)
# Conditions: genetic background: wild type; temperature: 30 C
# 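Note: PSI is a weighted mean of sequencing reads over stability bins, variants kept only with over 10 reads, mCherry proximal and sfGFP distal, peptide attached via GGGS linker.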
row,Sequence,protein stability index
1,SRRRVTSCTARG,0.729 ± 0.018
2,NMIIPEAVSLSL,0.672 ± 0.026
3,LPTLPGWKASCL,0.674 ± 0.032
4,PLLPLRSPPPLV,0.637 ± 0.046
5,GETQAAGAKYLG,0.724 ± 0.019
6,PPPLPLPSPPPP,0.671 ± 0.089
7,EKRRRRRQEAER,0.608 ± 0.03
8,LSSITLTYVSDF,0.781 ± 0.12
9,KIHRNGNKKEKD,0.7 ± 0.013
10,LAWLGLHERTLF,0.685 ± 0.0077
11,GLVDARRRWCFS,0.62 ± 0.0073
12,FSCKGSYIFTRR,0.651 ± 0.012
13,PPPPPPPPAPLP,0.708 ± 0.089
14,VSGGGEWRDAYG,0.677 ± 0.04
15,IRPNLERKIKVR,0.6226 ± 0.0014
16,FGAATLFLLAPC,0.55 ± 0.02
17,EETGWGVVWVVR,0.703 ± 0.037
18,PLPPSRLSPSPP,0.7 ± 0.0036
19,PSPPPPGPPLAL,0.632 ± 0.033
20,LNPLAILCSSVF,0.617 ± 0.037
21,LPPSRSLLPPRP,0.6531 ± 0.0059
22,PAPAPPSHFQER,0.717 ± 0.043
23,YLVKSCCNKDNV,0.659 ± 0.029
24,SMFRNSWRKNKS,0.602 ± 0.012
25,SRPTSGPPQPPL,0.707 ± 0.022
26,VVGVCLDIVCSP,0.519 ± 0.013

row,Sequence,protein stability index
1,ISRDNSQITRNM,0.68 ± 0.015
2,NLVSCFSSCGSV,0.628 ± 0.028
3,PTDVVCVSGHGS,0.748 ± 0.076
4,HWRRGGRRGGDR,0.703 ± 0.1
5,GSRPVSAGCAYS,0.655 ± 0.038
6,FSSGLAEVGVAR,0.676 ± 0.074
7,VRCAAIKLIGRI,0.675 ± 0.051
8,LFGQTVLLSAGT,0.713 ± 0.018
9,PHRSLHTPTLCS,0.686 ± 0.16
10,SRRRSPARPSLP,0.7462 ± 0.0045
11,CGSWVAVESLEL,0.679 ± 0.042
12,IERGLEGHLGHC,0.668 ± 0.035
13,PLLHSARSSPFR,0.699 ± 0.049
14,PVPPAPASPPTG,0.742 ± 0.06
15,PLLAPVPLTLTP,0.722 ± 0.022
16,LTTFLLTRIVGA,0.567 ± 0.035
17,ALRGSYTSFALA,0.623 ± 0.066
18,IECLRVVRSRCG,0.6724 ± 0.0023
19,RHPTHPVSSLNP,0.777 ± 0.05
20,SPSLPQLLDPPS,0.711 ± 0.011
21,LPPFPPPSAPPS,0.792 ± 0.023
22,FYPLPSYFAYPI,0.663 ± 0.022
23,PLRPPPSPLSPR,0.76 ± 0.055
24,GSTSSSFPVSIR,0.727 ± 0.045
25,LKKKKNKKQKTE,0.6152 ± 0.0053
26,SGLFPLSPKPCP,0.619 ± 0.11

row,Sequence,protein stability index
1,RRAPRQKLIPAK,0.6768 ± 0.0055
2,SPRVSRRVLPSF,0.6696 ± 0.0027
3,HFSDLIRFFFFA,0.579 ± 0.064
4,PPPPPSHPPPLS,0.571 ± 0.0097
5,WGGTAGWLHIGV,0.747 ± 0.076
6,LEGGWRVGGGRL,0.683 ± 0.015
7,VSCVRGFFLFPC,0.699 ± 0.022
8,CLGCAFPPHSLY,0.646 ± 0.046
9,GPSVRSTARGPG,0.724 ± 0.12
10,AYCRRPALPWRG,0.714 ± 0.028
11,GGFRWLGGSAPA,0.727 ± 0.072
12,STEHAPDLKSER,0.695 ± 0.077
13,PSSSPPLLPPPA,0.638 ± 0.026
14,KTAKSEEPILYR,0.753 ± 0.0083
15,PLAHYRPLPPRL,0.787 ± 0.063
16,FGVSIGELAGRH,0.686 ± 0.035
17,VLFSRFVFLGVL,0.528 ± 0.0095
18,KKKKKQEREKRN,0.623 ± 0.037
19,DSFSEFDSSPVI,0.727 ± 0.03
20,VHLAPPLPPTAT,0.708 ± 0.021
21,PAFPPPLPRRFL,0.693 ± 0.23
22,DLPDLQPACPRF,0.722 ± 0.019
23,GIVVTCLRSRWD,0.647 ± 0.013
24,ELCPFLPLFLTY,0.551 ± 0.03
25,ATGLPSPALLHT,0.687 ± 0.043
26,PSPRSGPPLASP,0.6896 ± 0.0012

row,Sequence,protein stability index
1,TARPDKDYPRLA,0.678 ± 0.013
2,RDRAPLLNLACL,0.689 ± 0.074
3,SVLEGGRWGFTR,0.758 ± 0.038
4,SPSFPPHRPPQH,0.724 ± 0.066
5,VPVGSWVGIGGK,0.692 ± 0.043
6,RRVPPGTPCGTR,0.708 ± 0.073
7,TECGVRRGLVGR,0.651 ± 0.025
8,RSTPPHAHRSPP,0.716 ± 0.015
9,AFGSVSLSCLWV,0.676 ± 0.073
10,HKKRPKIRSNEY,0.622 ± 0.026
11,VIEWFVRGRGGG,0.693 ± 0.01
12,QTVSISGVPDGF,0.6669 ± 0.001
13,RVGERVEGGGVV,0.6085 ± 0.0034
14,EERELGVVWGEV,0.702 ± 0.024
15,KKKNKEKSKKKK,0.761 ± 0.05
16,LVGLGGCLVGLR,0.6277 ± 0.0027
17,PAPHPPIPHQPP,0.532 ± 0.023
18,PPPPTPPYTPVP,0.623 ± 0.032
19,PSAPRHLIPPPI,0.715 ± 0.07
20,SLFSFSLSLCSP,0.653 ± 0.06
21,PLPPRLPPPPPS,0.72 ± 0.048
22,FLRLFLQQVEFL,0.7157 ± 0.0026
23,AWESVGVWWGDS,0.76 ± 0.043
24,PIGAFLSFWGQW,0.828 ± 0.087
25,GGRSSGRLMGKE,0.712 ± 0.013
26,QAVQTLTAETKH,0.63 ± 0.051

row,Sequence,protein stability index
1,PPPPPPPYPLIP,0.67 ± 0.013
2,SRRENEVIGGAE,0.725 ± 0.068
3,RFAWLPAPGRIV,0.647 ± 0.015
4,LSTCRYMLRLAY,0.5233 ± 0.0021
5,GLCPCGDAISTR,0.682 ± 0.053
6,KIKKKKKKNKEH,0.591 ± 0.028
7,VFDGSVSWARHD,0.6529 ± 0.0053
8,RATTNKRIRVEL,0.704 ± 0.011
9,GAKAARTTITSG,0.653 ± 0.026
10,TPPIPTTTSNFS,0.734 ± 0.052
11,LRETDGSGQYVR,0.686 ± 0.014
12,SLLSLPPSRAPS,0.666 ± 0.022
13,RVSPWSDLSAFL,0.745 ± 0.045
14,FFYFSLSLSHFC,0.496 ± 0.025
15,HPFARSLRSQIT,0.734 ± 0.043
16,LGRNTVIGLCLE,0.642 ± 0.1
17,DRRARTDEKKKK,0.646 ± 0.01
18,YYRLLACQRPSR,0.679 ± 0.027
19,VCGGLGCSVVLE,0.721 ± 0.078
20,PPDALTHPTPPQ,0.703 ± 0.013
21,VCGGRQGGWGGW,0.693 ± 0.0098
22,GVLVGLGWGWGG,0.7135 ± 0.0011
23,PCARLAGSPLPT,0.688 ± 0.021
24,RFLPALSRSLPS,0.782 ± 0.11
25,VQGGRNGEGGRG,0.651 ± 0.081
26,RSDGRWYAGGLG,0.737 ± 0.018

row,Sequence,protein stability index
1,GGCVVKVRAQGP,0.636 ± 0.01
2,RVVGGRDVRGGG,0.737 ± 0.049
3,DREVGQGRLTEE,0.6359 ± 0.0018
4,DRPACVAHKLFS,0.677 ± 0.0073
5,EWTTTVLGGQLR,0.696 ± 0.027
6,RPFLVGRISFSS,0.693 ± 0.046
7,NNYRKKKHNYKK,0.697 ± 0.011
8,FNRTRRLPLDSL,0.7018 ± 0.0053
9,RLGLVVRPCSPP,0.6864 ± 0.0015
10,SSDSYANLNWVI,0.741 ± 0.038
11,SVSPRVSSLSPL,0.671 ± 0.013
12,GAKSENSLTTVQ,0.673 ± 0.013
13,FPPLLFPPTPTR,0.842 ± 0.027
14,CPPSPSPPLPPL,0.712 ± 0.0085
15,EKKKKTIRKRMT,0.6691 ± 0.0018
16,LTGRAVCTDKLK,0.734 ± 0.083
17,GLLRGHVFVGRG,0.692 ± 0.029
18,CAWLCVRFAGVG,0.668 ± 0.062
19,PPPFLQPLPASP,0.729 ± 0.045
20,GCFLIANMCLLG,0.665 ± 0.0035
21,SLPPSRSPSPTL,0.665 ± 0.13
22,RVSIDIMNALGR,0.627 ± 0.033
23,GFRDGVASLFVR,0.757 ± 0.026
24,APPEAPQEPLTL,0.727 ± 0.0092
25,GVVFGWAGYKGT,0.677 ± 0.034
26,TILKKKNRRNKE,0.697 ± 0.024

row,Sequence,protein stability index
1,LGPSTCPCEVQS,0.677 ± 0.015
2,PPFPKFPRPRLH,0.738 ± 0.04
3,RPDRPSGLLPRP,0.701 ± 0.039
4,NAYRLSCGDNTN,0.683 ± 0.027
5,SSRTFRFRPPTI,0.702 ± 0.01
6,PCLSLSFPPLPH,0.736 ± 0.034
7,LRGPRTSTPLST,0.714 ± 0.036
8,SSNRKLVRLASS,0.69 ± 0.084
9,TSSSDCRSPAPP,0.744 ± 0.038
10,AQPRGLLVCPFL,0.664 ± 0.044
11,CPRWHDCLACIE,0.665 ± 0.011
12,AFPSLRSLPLFS,0.608 ± 0.024
13,DARGTVVEIRPG,0.72 ± 0.19
14,KNRKIIIITLPK,0.63 ± 0.036
15,CSLCILSWTFPS,0.6464 ± 0.0026
16,KKKKNKNKRTRK,0.662 ± 0.038
17,GVSGGFVGSSGG,0.62 ± 0.024
18,ASLVSPSFLGLV,0.677 ± 0.084
19,FPVSPFPPPPSS,0.742 ± 0.16
20,GALANPLGHSHL,0.792 ± 0.11
21,GLLENLKKRSRG,0.691 ± 0.07
22,KWCQSNNIVKRT,0.7 ± 0.011
23,AIKCSDTLLTWV,0.7194 ± 0.0042
24,MCWGSAEAMGFR,0.663 ± 0.014
25,IVLRRRKVTRRI,0.68 ± 0.043
26,AAVRGAYPDSEG,0.64 ± 0.043

row,Sequence,protein stability index
1,PLSPPPRRPPSP,0.655 ± 0.022
2,PGVIFRLPSCFV,0.652 ± 0.061
3,HPVSVKPSESSR,0.668 ± 0.073
4,LLFFSSCLDCFV,0.635 ± 0.026
5,LSSLPSTFPPLP,0.692 ± 0.029
6,SIYIEKERKMIV,0.686 ± 0.025
7,PCLSRPSTPPSS,0.674 ± 0.036
8,RVCPPPLRRLLS,0.693 ± 0.081
9,TAWVDSMVCMLL,0.71 ± 0.034
10,SLILSAGLGFFF,0.719 ± 0.095
11,AQAPVDPTPVPL,0.658 ± 0.11
12,RMSLGLHGVMRC,0.683 ± 0.045
13,IKIIKNDQKRIK,0.709 ± 0.061
14,RIRGGVLYKGVG,0.666 ± 0.016
15,LPRPPPRYLPPL,0.711 ± 0.059
16,KEARHCAQRKDI,0.546 ± 0.062
17,VPPGVVSSPCPN,0.661 ± 0.056
18,TASLSPSHRFYS,0.66863 ± 0.00061
19,LQALQTKPSQAL,0.688 ± 0.083
20,CLPQCLNPDFAE,0.645 ± 0.0066
